Results published in patent US20200157194A1 (Regeneron, published 2020).

T1: recombinant human GREM1 (hGREM1-His; C-terminal 10His tagged, R&D, #5190-GR) (human, UniProt O60565 25-184, limits assumed)
T1 sequence: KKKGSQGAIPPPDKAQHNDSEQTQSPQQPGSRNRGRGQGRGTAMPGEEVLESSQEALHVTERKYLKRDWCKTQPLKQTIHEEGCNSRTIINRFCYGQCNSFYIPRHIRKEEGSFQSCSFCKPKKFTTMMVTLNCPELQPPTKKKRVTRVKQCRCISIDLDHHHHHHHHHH

T2: human GREM1 (hGREM1-His; SEQ ID NO: 595) (human, UniProt O60565 25-184)
T2 construct: also called biotin-hGREM1-His; recombinant human GREM1 protein
T2 sequence: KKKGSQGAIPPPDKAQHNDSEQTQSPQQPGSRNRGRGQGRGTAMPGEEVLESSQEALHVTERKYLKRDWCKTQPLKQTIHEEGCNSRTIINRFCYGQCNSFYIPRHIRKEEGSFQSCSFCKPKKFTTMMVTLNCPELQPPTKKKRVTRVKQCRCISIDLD


How the values were obtained:
[1] = target: T1, recombinant human GREM1 (hGREM1-His; …); test: cell-based or functional assay
[2] = target: T1, recombinant human GREM1 (hGREM1-His; …); test: BLI Octet, mAb captured, 100 nM GREM1 without vs with 5 uM heparin;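 further: octet Red96 biolayer interferometry at 25 °C, antibodies captured on anti-human IgG Fc biosensors, association of GREM1 measured with versus without heparin in HEPES-buffered saline, pH 7.4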
Procedure: (§1) Binding measurements were conducted using an Octet Red96 label-free biomolecular interaction instrument (ForteBio). All experiments were performed at 25° C. using plate agitation at 1000 rpm. Solutions were made in an aqueous buffer containing 10 mM HEPES, 150 mM NaCl, 3 mM EDTA 0.05% P20, 0.1 mg/mL BSA and adjusted to pH of 7.4 (HBST buffer).
(§2) Anti-Human IgG Fc Capture biosensors (ForteBio) were separately loaded with 50 μg/mL solutions of 24 different anti-GREM1 antibodies for 60 seconds. Following a 30 second wash, duplicate biosensors for each antibody were submerged into wells containing either 100 nM GREM1 solutions or 100 nM GREM1 solutions containing 5 μM of heparin, measuring association for 300 seconds.

[3] = target: T2, human GREM1 (hGREM1-His; SEQ ID NO: 595); test: SPR, Biacore T200, 25 C, mAb captured, hGREM1-His injected;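 further: Heparin-supplemented HBS-EP+ used as running buffer, association and dissociation phases followed, Kd computed as koff divided by kon and half-life derived from koff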
Procedure: (§3) Kinetic experiments were carried out using HBS-EP+heparin [10 mM HEPES, 150 mM NaCl, 3 mM EDTA, 0.05% (v/v) surfactant P20, 10 μg/ml heparin sodium salt, pH 7.4] as both the running buffer and the sample buffer. […] Antigen-antibody association was monitored for 150 seconds while dissociation in buffer was monitored for 420 seconds. Kinetic analysis was performed using Scrubber software version 2.0a or Biacore T200 evaluation software v1.0 to determine kₐ and kd values. KD and t_{1/2} were then calculated from the experimentally determined kₐ and kd values as KD=kd/kₐ and t_{1/2}=In(2)/kd.

[4] = target: T1, recombinant human GREM1 (hGREM1-His; …); test: cell-based or functional assay; remark: listed apart in the source
[5] = target: T2, human GREM1 (hGREM1-His; SEQ ID NO: 595); test: SPR, Biacore T200, 37 C, mAb captured, hGREM1-His injected;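 further: HBS-EP running buffer containing heparin, association and dissociation phases tracked, KD computed as koff over kon and half-life derived from koff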
Procedure: as §3

[6] = target: T1, recombinant human GREM1 (hGREM1-His; …); test: BLI Octet, mAb captured, 100 nM GREM1;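 further: octet Red96 biolayer interferometry at 25 °C in pH 7.4 HEPES saline buffer, antibodies held on anti-human IgG Fc capture biosensors, then exposed to GREM1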
Procedure: as §1, §2

[7] = target: T2, human GREM1 (hGREM1-His; SEQ ID NO: 595); test: competition ELISA, biotin-hGREM1-His (100 pM) binding to coated hBMP4
Procedure: Data were analyzed using a sigmoidal dose-response model within Prism™ software. […] The absorbance values of the wells containing the highest concentration for each antibody were used to determine the percent maximum blocking.

[8] = target: T1, recombinant human GREM1 (hGREM1-His; …); test: BLI Octet, mAb captured, 100 nM GREM1 + 5 uM heparin;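 further: octet Red96 biolayer interferometry at 25 °C, antibodies captured on anti-human IgG Fc biosensors, pH 7.4 HEPES buffer with 0.1 mg/mL BSA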

Row | Binder | hGREM1-His Inhibition IC50, M; W-20-17 cell differentiation assay (alkaline phosphatase) [1] [nM] | Reduction in Signal from Heparin at 30 sec [2] [nm] | Reduction in Signal from Heparin at 300 sec [2] [nm] | Kd [3] [nM] | koff [3] [s⁻¹] | kon [3] [M⁻¹ s⁻¹] | t1/2 [3] [min] | IC50 [M], inhibition of hGREM1-His, W-20-17/BRE-luc luciferase (100 pM hBMP4, 10 nM hGREM1-His) [4] [M] | Kd [5] [nM] | koff [5] [s⁻¹] | kon [5] [M⁻¹ s⁻¹] | t1/2 [5] [min] | Binding Signal with 30 sec Association [6] [nm] | Binding Signal with 300 sec Association [6] [nm] | % blocked at maximum Ab tested (20 nM) [7] [%] | IC50 [7] [nM] | Binding Signal with 30 sec Association [8] [nm] | Binding Signal with 300 sec Association [8] [nm]
1 | H4H2889N (antibody, human IgG4, V domains shown, H4H prefix = human IgG4 Fc) VH: QVQLQESGPGLVKPSETLSLTCTVSGGSISNSYWSWIRQPPGKGLEWIGYIYYSGNTNYNPSLKSRVTISVDTSKNQFSLKLSSVTAADTAVYYCARVNDYSNYDSYYYGMDVWGQGTTVTVSS VL: AIQMTQSPSSLSASVGDRVTITCRASQGIRNDLGWYQQKPGKAPKLLIYAASSLQSGVPSRFSGSGSGTDFTLTISSLQPEDFATYYCLQDYNYPPTFGQGTKVDIK | 5.4 | 0.15 | 0.02 | 1.89 | 0.000118 | 62700 | 98 | 1.2e-09 | 4.06 | 0.000422 | 104000 | 27 | 0.2 | 0.46 | 86 | < 0.025 | 0.05 | 0.44
2 | H4H6269P (antibody, human IgG4, V domains shown, H4H prefix = human IgG4 Fc) VH: QVQLQESGPGLVKPSQTLSLTCTVSGGSISSGGYYWTWIRQHPGKGLEWIGYIYYSGSTYYNPSLKSRVTMSVDTSKNQFSLKLSSVTAADTAVYYCARLLDFDYWGQGTLVTVSS VL: AIQMTQSPSSLSASVGDRVTITCRASQGIRNDLGWYQQKPGKAPKLLIYAASSLQSGVPSRFSGSGSGRDFTLTISSLQPEDFASYYCLQDHNYPLTFGGGTKVEIK | – | 0.01 | 0.08 | 0.625 | 6.32e-05 | 101000 | 183 | – | 1.98 | 0.000254 | 128000 | 46 | 0.15 | 0.6 | 73 | 0.026 | 0.14 | 0.52
3 | H2bM2783N (antibody, mouse IgG2, V domains shown, H2M prefix = mouse IgG2 Fc (here H2bM); also called H2M2783N) VH: EVQLLESGGGLVQPGGSLRLSCAASGFTFSSYVMNWVRQAPGKGLEWVSAISGSGGSTYYADSVKGRSTISRDNSKNTLYLQMNSLRAEDTAIYYCAKGDIAAIVFDAFDIWGQGTVVTVSS VL: DIQMTQSPSSLSASVGDRVTITCQASQDISSCLNWYQHKPGKAPKLLIYDASYLETGVPSRFSGSGSGTDFTFTISSLQPEDIATYYCQQYDNLPYTFGQGTKLEIK | – | – | – | 7.4 | 0.0015 | 202000 | 7.7 | – | – | – | – | – | – | – | – | – | – | –
4 | H4H2783N2 (antibody, human IgG4, V domains shown, H4H prefix = human IgG4 Fc) VH: EVQLLESGGGLVQPGGSLRLSCAASGFTFSSYVMNWVRQAPGKGLEWVSAISGSGGSTYYADSVKGRSTISRDNSKNTLYLQMNSLRAEDTAIYYCAKGDIAAIVFDAFDIWGQGTVVTVSS VL: DIQMTQSPSSLSASVGDRVTITCQASQDISSALNWYQHKPGKAPKLLIYDASYLETGVPSRFSGSGSGTDFTFTISSLQPEDIATYYCQQYDNLPYTFGQGTKLEIK | 5.6 | 0.28 | 0.18 | 15.7 | 0.000476 | 30400 | 24 | 1.3e-09 | 61.1 | 0.000849 | 13900 | 14 | 0.29 | 0.47 | 76 | < 0.025 | 0.01 | 0.29

Further binders by falling Kd [3], results first:

Row | hGREM1-His Inhibition IC50, M; W-20-17 cell differentiation assay (alkaline phosphatase) [1] [nM] | Reduction in Signal from Heparin at 30 sec [2] [nm] | Reduction in Signal from Heparin at 300 sec [2] [nm] | Kd [3] [nM] | koff [3] [s⁻¹] | kon [3] [M⁻¹ s⁻¹] | t1/2 [3] [min] | IC50 [M], inhibition of hGREM1-His, W-20-17/BRE-luc luciferase (100 pM hBMP4, 10 nM hGREM1-His) [4] [M] | Kd [5] [nM] | koff [5] [s⁻¹] | kon [5] [M⁻¹ s⁻¹] | t1/2 [5] [min] | Binding Signal with 30 sec Association [6] [nm] | Binding Signal with 300 sec Association [6] [nm] | % blocked at maximum Ab tested (20 nM) [7] [%] | IC50 [7] [nM] | Binding Signal with 30 sec Association [8] [nm] | Binding Signal with 300 sec Association [8] [nm] | Binder
5 | 24 | 0.18 | 0.06 | 17 | 0.00105 | 61800 | 11 | 9.5e-10 | 13.8 | 0.00197 | 142000 | 6 | 0.24 | 0.52 | 59 | 0.45 | 0.06 | 0.46 | H4H2784N (antibody, human IgG4, V domains shown, H4H prefix = human IgG4 Fc) VH: QVQLVESGGGVVQPGRSLRLSCAASGFTFSSYGMHWVRQAPGKGLEWVTIIWHDGSNKYYADSVKGRFTISRDNSKNTLYLQMNSVRAEDTAVYYCARDEDFFDYWGQGTLVTVSS VL: not shown
6 | – | 0 | 0 | 12.4 | 0.00088 | 71200 | 13 | – | 28 | 0.00161 | 57400 | 7 | 0.13 | 0.58 | 69 | 0.1 | 0.13 | 0.58 | H4H2780N (antibody, human IgG4, V domains shown, H4H prefix = human IgG4 Fc) VH: EVQLVESGGGLVKPGGSLRLSCAASGFTFSTYSMNWVRQAPGKGLEWVSSISSGSSYIYYTDSVKGRFTISRDNAKNSLYLQMNSLRAEDTAVYYCARFGSYYYFGFDVWGQGTTVTVSS VL: DIQMTQSPSSLSASVGDRVTITCRASQGISNYLAWYQQKPGKVPKLLIFSASTLQSGVPSRFSGSGSGPDFTLTVSSLQPEDVATYYCQKYNSAPFAFGPGTKVDIK
7 | 4.4 | 0.05 | 0 | 1.22 | 0.000173 | 142000 | 67 | 9.5e-10 | 2.35 | 0.0004 | 171000 | 29 | 0.2 | 0.49 | 82 | 0.17 | 0.15 | 0.49 | H4H2892N (antibody, human IgG4, V domains shown, H4H prefix = human IgG4 Fc) VH: QVQLVESGGGVVQPGRSLRLSCAASGFTFSSYGIHWVRQAPGKGLEWVAILWYDGSNKYYADSVKGRFTISRDNSKTTLYLQMNSLRAEDTAVYYCARENYNDLNFDLWGRGTLVTVSS VL: DIQLTQSPSFLSASVGDRVTITCWASQGISSYLAWYQHKPGKAPKLLIYAASTLQSGVPSRFSGSGSGIEFTLTISSLQPEDFATYYCQQLKSYPPWTFGQGTKVEIR
8 | 1.9 | -0.07 | -0.04 | 0.778 | 0.000132 | 170000 | 88 | 5.8e-10 | 1.23 | 0.000215 | 175000 | 54 | 0.15 | 0.5 | 94 | 0.036 | 0.22 | 0.54 | H4H2895N (antibody, human IgG4, V domains shown, H4H prefix = human IgG4 Fc) VH: EVQLVESGGGLVQPGGSLRLSCAASGFTVSSNYMSWVRQAPGKGLEWVSVIYSGGNTYYADSVKGRFTISRHNSKNTLYLQMNSLRAEDTAVYYCARDLGIKSDYWGQGTLVTVSS VL: EIVLTQSPDFQSVTPKEKVTITCRASQSIGTTLHWYQQKPDQSPKLLIKYVSQSLSGVPSRFSGSGSGTDFTLTINSLEAEDAATYYCHQSSSLPWTFGQGTKVEIK
